The values below are quoted from earlier work in article PMC5695669 (Journal of medicinal chemistry, 2012).

For orientation: Ki means a dissociation constant, usually derived from enzyme kinetics or from competition with a known ligand. What is called IC50 is the midpoint of a concentration-inhibition curve.

One series addresses rMor (μ opioid receptor) (Rattus norvegicus, UniProt P33535). Particulars: [3H]DAMGO, ±SEM, ref [3].
The subject of series [1] is guinea pig ileum longitudinal muscle-myenteric plexus. Particulars: read-out: GPI (IC50); functional bioactivity, ±SEM; ref [3].

rMor (μ opioid receptor), sequence (P33535 whole entry): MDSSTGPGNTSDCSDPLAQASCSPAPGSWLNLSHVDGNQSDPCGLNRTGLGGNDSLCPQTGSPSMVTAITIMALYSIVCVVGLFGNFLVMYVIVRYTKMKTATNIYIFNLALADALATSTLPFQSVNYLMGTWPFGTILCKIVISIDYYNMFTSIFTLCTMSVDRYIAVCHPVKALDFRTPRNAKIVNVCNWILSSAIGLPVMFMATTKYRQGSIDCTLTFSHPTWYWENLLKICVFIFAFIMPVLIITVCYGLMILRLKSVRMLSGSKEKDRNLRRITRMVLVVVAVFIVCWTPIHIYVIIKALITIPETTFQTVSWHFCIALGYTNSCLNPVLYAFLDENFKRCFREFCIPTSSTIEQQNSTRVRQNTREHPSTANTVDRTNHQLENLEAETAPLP

Consider “H-Tyr-Pro-Phe-Phe-NH2 (H-YPFF-NH2) [EM-2]”, for which the inhibitory constant (Ki) with rMor (μ opioid receptor) is 9.6 ± 0.98 nM. For the same substance, the IC50 in series [1] is 15 ± 2 nM.
